The values below come from patent US20110206724A1.

Assay in all cases: capture ELISA on E. coli lysate
On the technique in general: ELISA stands for enzyme-linked immunosorbent assay.

Assay [1] addresses WT-R-IM2(74) hybrid WHcAg construct (woodchuck hepatitis virus; influenza A virus).
Assay [2] addresses HyW-IM2(-)78 hybrid WHcAg particle (woodchuck hepatitis virus; influenza A virus).
In assay [3] the target is 150C-IM2(74) hybrid WHcAg construct (woodchuck hepatitis virus; influenza A virus).
In assay [4] the target is HyW-IM2(74) hybrid WHcAg construct (woodchuck hepatitis virus; influenza A virus).

Turning to mAb 14C2, anti-influenza M2e (antibody), the relative binding score (Accessability) (relative score) was 2 in assay [1], 3 in assay [2], 3 in assay [3] and 3 in assay [4].
